# Experimental data reported in the supplement of paper PMC9170038.
# System: MS2 coat protein
# Assay: apparent KD of MS2 coat protein; higher = weaker reporter binding
# Conditions: Eterna round: R107
# Procedure, shortened: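 Designed RNA switches were transcribed on-chip from Illumina sequencing clusters and titrated with SNAP-549-labelled MS2 coat protein in twofold steps from 0.7 or 1.5 nM up to 3 µM. Each step lasted 0.8–1.5 h at first and 10–20 min by the end, in 100 mM Tris-HCl pH 7.5, 80 mM KCl and 4 mM MgCl2, without or with constant ligand. Apparent KD is the median, for each design, of fits to normalised cluster binding curves.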
# [1] = input ligand: theophylline 20 uM
# [2] = input ligand: tryptophan 2.4 mM
# [3] = input ligand: theophylline 2 mM
Sequence,apparent KD of MS2 coat protein (input ligand: arginine 13.2 mM),apparent KD of MS2 coat protein [1],apparent KD of MS2 coat protein [2],apparent KD of MS2 coat protein [3],apparent KD of MS2 coat protein (input ligand: none)
AUGUUUGUGUGAGAUACCAGUGAGGCCACAUGAGGAUCACCCAUGUCCCUCACUCCGGCCCACCCUUGGCAGCUCUUAUAGUAAA [Exclusion Theophylline B GF 25],0.012 µM,0.0129 µM,0.0104 µM,,
AUUAAAAGUUGUGAUACCAGACGAACAUGAGGAUCACCCAUGUAACUUUUAGGUGUUGUAGUCCCUUGGCAGCACUAUGUAGUUA [JR_SSTheophyB_Sub012],0.0313 µM,0.0492 µM,0.0401 µM,,
AUUAAGGAUAUAUAGAAGGCGGAGAAGAGACGAGGACCGGUACGGCCGCCACUCGUGUUAGUUAACAUGAGGAUCACCCAUGUAA [Turkey 2],0.0413 µM,0.0769 µM,,0.102 µM,
AUUCAUGGAAACAUGACAUAGGGAUCCGGUCGAGGACCGGUACGGCCGCCACUCGUUUGGAGGCACAUGAGGAUCACCCAUGUUA [SS Tryp A #7],0.0407 µM,0.118 µM,,0.101 µM,
AUUGACAUGAGGAUCACCCAUGUAUCCGAAGGAGCGGCAGAUGUGCCAGGUAGGUCGCGGGUGAAAGAGACAUCGUAGGGUGUCG [Same State - Arginine A / B [only NuPack]],0.0739 µM,0.207 µM,0.229 µM,0.469 µM,0.256 µM
AUUGGGUUAUCAGAUACCAGACUAUUCUAGACAUGAGGAUCACCCAUGUAUUGGGUUUUCGUCCCUUGGCAGCUGUUAAGUUUAA [JR_SSTheophyB_Sub005],0.117 µM,0.195 µM,0.165 µM,,
AUUGUCGCGUCGGCCGCCACUGUCAUGGUUUUCGUGGAACACAUGAGGAUCACCCAUGUAAUUGACAGGACCGGGACGUGGCGGC [Vevea],0.0102 µM,0.0111 µM,0.0122 µM,0.0106 µM,0.00864 µM
AUUUAUUAGACGGCCGCCACUUGAAAGCGACCUCAUAAAUGGGAACAUGAGGAUCACCCAUGUAAGAGGACCGGGUCUAGUAGAU [TryptB-ms2@45],0.132 µM,0.15 µM,,0.318 µM,
CAAGAACAGCCAGAUCUUGGCAGCUGAGAAGGAGCGCGGGAAGCCGCAGGUAGGUCGCUCAGGAAUACAUGAGGAUCACCCAUGU [Beoror],0.0198 µM,0.0246 µM,0.0172 µM,0.02 µM,0.0176 µM
CAAUUUAGAAAACUAAAUUGAGUGGGUGAACGAGGACCGGUACGGCCGCCACUCGGACAUGAGGAUCACCCAUGUCCAUGUGAAA [AstrosExyTryA#23],0.0113 µM,0.0158 µM,0.0292 µM,0.0166 µM,0.0148 µM
CAAUUUAUAUGAAGGAGCGUCGAAAAUGGGUAAACAUGAGGAUCACCCAUGUAAAGGGAACGACAGGUAGGUCGCAUAUGGAUUG [AstromonsSSArgB#10],0.123 µM,0.234 µM,0.182 µM,0.316 µM,0.18 µM
CAAUUUCGAAUAGAUACCAGCUGUCAUAAACACAUGAGGAUCACCCAUGUGCUUCUCGUCAGCCCUUGGCAGCUAUAACUAGAGC [theeternabot_sameState_MS2_Theo_B_40],0.0154 µM,0.0165 µM,0.0161 µM,,
CACAUGAGGAUCACCCAUGUCUGAACUGAAGGAGCGCUAAACAAGGCAGGUAGGUCGCGGAAUUUUGUGUGCAUAUGCACACGGG [9.R],0.0168 µM,0.0327 µM,0.0176 µM,0.0211 µM,0.0172 µM
CACAUGAGGAUCACCCAUGUCUGAACUGAAGGAGCGCUAAAUAAGGCAGGUAGGUCGCGGAAUUUUGUGUGCAUAUGCAUAUGGG [9.M],0.0238 µM,0.0372 µM,0.0288 µM,0.0342 µM,0.0268 µM
CACUACAUGAGGAUCACCCAUGUAUACUGACGAGGACCGGUACGGCCGCCACUCGAACCGAAACCGACUUCAUUCUGUGUACCAU [theeternabot_sameState_MS2_Trp_A_26],0.015 µM,0.0227 µM,,0.0193 µM,
CAGAACAUGAGGAUCACCCAUGUAAACGACCGAGGACCGGUACGGCCGCCACUCGAUAUGUCUUGAGGGAGAUAUGGAUUCACAU [theeternabot_sameState_MS2_Trp_A_46],0.023 µM,0.0514 µM,,0.0444 µM,
CAGAACAUGAGGAUCACCCAUGUCAGGGAUACCAGCUCAGACAUGGGCCCUUGGCAGCUCUGUGGCUGACGAAAGUCAGCAUCUG [#17 SameState-TheophyllineA],0.0175 µM,0.109 µM,0.0195 µM,,
CAGCCACAUGAGGAUCACCCAUGUGAUGAUACCAGCUUCGUCUUAAGCCCUUGGCAGCAUAUCUCUUUGUUCUCAUACAUAGCAU [theeternabot_sameState_MS2_Theo_A_16],0.012 µM,0.0173 µM,0.0114 µM,,
CAGUGAGAACGAAGGAGCGCUGAAUGAUGUGGACAUGAGGAUCACCCAUGUUAAGUCCAAUGGCAGGUAGGUCGCGUAACACUAG [Same State - Arginine B],0.0141 µM,0.0119 µM,0.0158 µM,0.0126 µM,0.0158 µM

Sequence,apparent KD of MS2 coat protein (input ligand: arginine 13.2 mM),apparent KD of MS2 coat protein [1],apparent KD of MS2 coat protein [2],apparent KD of MS2 coat protein [3],apparent KD of MS2 coat protein (input ligand: none)
CAGUGAGAGUCGGCCGCCACUUAACGCAAGUAGCGCAACCCAAAACAUGAGGAUCACCCAUGUCGAAGGACCGGGACAAUGAGCG [theeternabot_sameState_MS2_Trp_B_47],0.0115 µM,0.0167 µM,,0.0117 µM,
CAUAUUGUAACUGAUACCAGUGUACUGACAUGAGGAUCACCCAUGUUGGGUUUUGUUGUACACCCUUGGCAGCAGAAUCAAUAUG [AstrosExyTheB#4],0.0456 µM,0.0742 µM,0.0604 µM,,
CAUCGGGCGGUAAAUGGCGGGUACGGUGAUACCAGUUUUUGAUUUAACCCUUGGCAGCACUAUACAUGAGGAUCACCCAUGUAAU [theeternabot_exclusion_MS2_Theo_A_15],0.0177 µM,0.0232 µM,0.0195 µM,,
CAUGCGGCUAGUGAGCGUGGUGAGUAAAGGCGAGGACCGGUACGGCCGCCACUCGAGGCAAGACAUGAGGAUCACCCAUGUUGUA [theeternabot_exclusion_MS2_Trp_A_27],0.0108 µM,0.0193 µM,,0.0159 µM,
CAUUAAUUACGAAGGAGCGUCGAGAAUGGGUAAACAUGAGGAUCACCCAUGUGAAGGGAACGGCAGGUAGGUCGCGUAAUUAAUG [#22 Same State - Arginine B],0.105 µM,0.116 µM,0.0605 µM,0.0751 µM,0.0972 µM
CCAUAAGUACCGGUCCUCAGAUCCUCAUGACGAGGACCGGUACGGCCGCCACUCGAAACAUGAGGAUCACCCAUGUAAUAAUACC [Brourdmod18],0.0264 µM,0.101 µM,,0.0976 µM,
CCAUGCAGGUCGGCCGCCACUACACACAUGAGGAUCACCCAUGUAGUUACUGGGUGAAGUGGCAGUAGGACCGGGACCUGCACAU [Brourdmod19],0.0947 µM,0.326 µM,,0.541 µM,
CCAUGGCUAGGAAGGAGCGCAUACUUCACAUGAGGAUCACCCAUGUCGAGACGUGAGUCAGUGCAGGUAGGUCGCCUAGCCAUGG [Same State - Arginine B (Freestyle 30)],0.0198 µM,0.0292 µM,0.0186 µM,0.0248 µM,0.0167 µM
CCCAAAUAGAUAUUUGGGAUUUUACUCGAAGGAGCGUCAUAGUAGGCAGGUAGGUCGCGAGACAUGAGGAUCACCCAUGUAGAGA [ss-argA-N],0.0341 µM,0.0459 µM,0.0409 µM,0.0451 µM,0.0411 µM
CCCAGUUAUAACAAAGGAAUAAUACUCGAAGGAGCGUCAUAGUAGGCAGGUAGGUCGCGAGACAUGAGGAUCACCCAUGUAGAGA [qvvmullin],0.0343 µM,0.0495 µM,0.0328 µM,0.0322 µM,0.046 µM
CCGACGAUGACUAUGGGUCAGGAGUGCGUACGAGGACCGGUACGGCCGCCACUCGAGGAGUGGGACAUGAGGAUCACCCAUGUGG [#19 Exclusion Tryptophan A],0.0446 µM,0.0498 µM,0.0478 µM,0.0548 µM,0.0502 µM
CCGCACAUGAGGAUCACCCAUGUCAGGGAUACCAGCCCAGACAUGGGCCCUUGGCAGCCCUGUAGCUGACGAAAGUCAGCAGCGG [Omei Theo A SS A v1],0.0519 µM,0.277 µM,0.0447 µM,0.0576 µM,0.0317 µM
CCGCCCACGAAUGAUACCAGCUAAAAUCAUGUACCAGACACAUGAGGAUCACCCAUGUAAAGCCCUUGGCAGCGUACGCCACCCG [e-theoB-?],0.0255 µM,0.0437 µM,0.0258 µM,,
CCGGGCUGUGGAGACAUAGCCCGGACUGAAGGAGCGGGAAUAAACCCAGGUAGGUCGCAGAGAUCCACAUGAGGAUCACCCAUGU [!0.S],0.0344 µM,0.0409 µM,0.0367 µM,0.0468 µM,0.034 µM
CCGUUAAAAUUCCAUUAUACAAUACCUGAAGGAGCGUAGGAAACUACAGGUAGGUCGCAGAUACAUGAGGAUCACCCAUGUACGG [SSAA #13],0.0146 µM,0.0203 µM,0.0173 µM,0.0225 µM,0.0162 µM
CCUAGCACACAUGAUACCAGCGACAUGAGGAUCACCCAUGUACGGCGUGUAUCGCAAGGUUGCCCUUGGCAGCAUGAUAGUGCUG [Xeerdi],0.0127 µM,0.0247 µM,0.0142 µM,,
CCUAUAUAGUCGGCCGCCACUGACUACAUGAGGAUCACCCAUGUAACACGAACAUGGUCCUGGAUCAGGACCGGGACUAUAUAGG [Tryp B Ex t5],0.0165 µM,0.0242 µM,0.122 µM,0.0222 µM,0.0207 µM
CCUAUCCAGUCGGCCGCCACUGACCAUUUGGAACAGUGGGUGAAAACAUGAGGAUCACCCAUGUACAGGACCGGGACUGUAUAGG [Ex Tryptophan B 20],0.0147 µM,0.0157 µM,,0.0139 µM,
CCUAUGCAGUCGGCCGCCACUGAGUCCUCAAUAAUAAAUUAAUAUACAUGAGGAUCACCCAUGUACAGGACCGGGACUGUAUAGG [Ex Tryptophan B 13],0.0967 µM,0.268 µM,,0.215 µM,
